Laboratory results reported in patent US12139531B2, “Compositions and methods useful in promoting milk production” (The Regents of the University of California, priority 2019, dated 2024).
“Also recorded” adds a separate entry of the source.

Legend:
mammary gland = test: Subcutaneous injection into ovariectomized, hormone-treated mice; carmine-stained mammary gland branching; assay type: in vivo; settings: 14 days, ovariectomized animals given E, P, Prl
Protocol: The influence of ROBO1 ECD fragments in vitro on primary alveolar progenitor cell growth and in vivo on branching morphogenesis was tested. FACS-purified murine and bovine alveolar progenitor cells (AVPs) were plated as single cells in Matrigel and grown for 10 days in the absence and presence of ROBO1-ECDs fragments (FIGS. 9A, B). […] ROBO1-Ig5 fragments were also tested in vivo by subcutaneously injecting them (7.5 mammary gland/kg/day) into ovariectomized animals that were orally administered hormones in Nutella: estrogen (E, 1 μg/day), progesterone (P, 1 mg/day mammary gland/day) and prolactin (Prl, 0.2 mg/day mammary gland/day) (FIG. 9C). The mammary glands were harvested after 14 days of ROBO1-Ig5 fragment treatment, carmine stained and evaluated. […] Other aspects can involve ROBO1-ECD constructs that are tagged with the murine-Fc sequence. This tag is recognized by an endogenous receptor that facilitates transport into tissues 4. Mouse mammary glands were surgically dissected, spread onto a glass slide, and fixed in Carnoy's solution (25% glacial acetic acid and 75% ethanol). […] C57BL mice (8-10 weeks old) were bilaterally ovariectomized and allowed to recover for 1 week^47. During the recovery, mice were trained with oral administration Nuttella. Mice were fed Nutella mixed with 17beta-estradiol (E, 1 μg, Sigma)+progesterone (P, 1 mg, Sigma) for three weeks (daily). For ROBO1-Ig5 ECD, prolactin (Prl, 200 μg, NHPP) was given by Nutella oral administration over one week (daily), starting after 1 week E+P. For ROBO2 mAb, prolactin (Prl, 50 μg) was injected by intraperitoneal injection over 2.5 weeks (daily), starting after 1 week E+P. ROBO1-Ig5 ECD was injected subcutaneously (7.5 mg/kg ROBO1-Ig5 ECD or PBS; daily) over the 2 weeks period, starting after 1 week of E+P. ROBO2 mAbs or IgG isotype control mAbs ([…]) were injected subcutaneously twice/week over 17 days, starting after 1 week of E+P^48.

HC11 cells [1] = test: HC11 dome assay (milk dome formation on differentiation in DIP media); assay type: cell-based, mouse
Protocol: To investigate ROBO1 function during alveologenesis, Robo1 gene expression was inhibited in HC11 cells (Robo1 KD). HC11 cells are a well-established, prolactin-responsive model of lactation,^19,20. Cells in which Robo1 gene expression was not inhibited are referred to as WT or Robo1+/+ herein. To measure milk production, cells were grown to confluence and then primed by treatment with epidermal growth factor (EGF, 10 ng/ml). The EGF is administered for three days in combination with charcoal-stripped fetal bovine serum, followed by one day of charcoal-stripped fetal bovine serum in the absence of EGF. These primed cells are then differentiated by treatment with dexamethasone (1 μg/ml), insulin (5 μg/ml) and prolactin (Prl, 5 μg/ml) media (DIP media) for between 3 and 5 days (FIG. 2A). Differentiation (Dif) results in the development of milk-filled domes (FIG. 2B). […] If the cells were left undifferentiated (Undif), there was little dome formation in either WT or Robo1−/− cells (FIG. 2B). Next, tissue from Robo1 knockout mice (Robo1−/−) and wild type mice (WT or Robo1+/+) mice was analyzed. Mammary glands were harvested from pregnant day 18 WT and Robo1−/− animals and alveologenesis analyzed by serially sectioning, carmine staining and then quantifying the area occupied by alveoli in sections located at top, middle and bottom portions of the tissue.
Dome number formation in response to a titration of ROBO1 ECD fragments was quantified. […] A bovine ROBO1-Ig5 construct was also tested in this assay and, as with the rat constructs, more domes were formed in response to treatment with higher concentrations of […] (FIG. 7H).
HC11 cells were grown in RPMI 1640 media (Gibco) supplemented with 10% fetal bovine serum (BioFluid Technologies), 5 μg/mL insulin (Sigma), and 10 ng/ml epidermal growth factor (EGF; Sigma). To induce differentiation in HC11 cells, confluent plates were given fresh media (RPMI 1640 media supplemented with 5% charcoal-stripped fetal bovine serum (BioFluid Technologies), 5 μg/mL insulin, and 10 ng/ml epidermal growth factor (EGF; Sigma) for 3 days followed by 24 hours of priming in priming medium (RPMI 1640 media supplemented with 5% charcoal-stripped fetal bovine serum (BioFluid Technologies), and 5 μg/mL insulin. After priming, DIP medium (RPMI 1640 media supplemented with 5% charcoal-stripped fetal bovine serum (BioFluid Technologies), 10^−6 M dexamethasone (Sigma), 5 μg/mL insulin, and 5 μg/mL prolactin (National Hormone and Peptide program) was added with fresh media every 24 hours.

HC11 cells [2] = test: Western blot analysis of WAP and PLIN2 in HC11 cells; assay type: cell-based, mouse; settings: ECD titration
Protocol: To determine whether the promotion of dome formation also results in higher milk production, HC11 cells were differentiated in the presence or absence of ROBO1-ECD fragments that were added to cells simultaneously with DIP media. Cells were harvested and the expression of WAP and Lalba assessed by RT-qPCR. […] WAP expression levels were not increased in cells treated with DCC-Ig4 (FIG. 7K). Next, Western blot analysis of WAP and PLIN2 was performed on cells treated with ROBO1-Ig5 and ROBO1-Ecto.
Protein lysates were prepared by directly lysing adherent cells in 1× sample buffer supplemented with 5% beta-mercaptoethanol and boiled for 5 minutes. Protein lysate was resolved by SDS-PAGE and transferred to a PVDF for 90 minutes at 400 mA or overnight at 30 mA. Primary antibodies were used at the concentration indicated in Table 1 and incubated overnight at 4° C. HRP conjugated secondary antibodies (Jackson Labs) were used at 1:3000 and incubated for 45 minutes at room temp. All proteins were detected using Clarity ECL (BioRad) using a BioRad Chemi-Doc MP Imager and quantified using ImageLab software as previously described a.

B1: ROBO1-Ig5: recombinant soluble ROBO1 ECD construct comprising all five Ig domains (protein)
chain: SRLRQEDFPPRIVEHPSDLIVSKGEPATLNCKAEGRPTPTIEWYKGGERVETDKDDPRSHRMLLPSGSLFFLRIVHGRKSRPDEGVYICVARNYLGEAVSHNASLEVAILRDDFRQNPSDVMVAVGEPAVMECQPPRGHPEPTISWKKDGSPLDDKDERITIRGGKLMITYTRKSDAGKYVCVGTNMVGERESEVAELTVLERPSFVKRPSNLAVTVDDSAEFKCEARGDPVPTVRWRKDDGELPKSRYEIRDDHTLKIRKVTAGDMGSYTCVAENMVGKAEASATLTVQEPPHFVVKPRDQVVALGRTVTFQCEATGNPQPAIFWRREGSQNLLFSYQPPQSSSRFSVSQTGDLTVTNVQRSDVGYYICQTLNVAGSIITKAYLEVTDVIADRPPPVIRQGPVNQTVAVDGTLTLSCVATGSPVPTILWRKDGVLVSTQDSRIKQLESGVLQIRYAKLGDTGRYTCTASTPSGEATWSAYIEVQEF
For B1, the “mammary gland area (size)” value (mammary gland) was “significantly greater area”, the “number of primary (1°) branches” value (mammary gland) was “higher number” and the overall branching density (mammary gland) was “not different from that of controls; also recorded: no increase”. The “secondary (2°) and tertiary (3°) branching” value (mammary gland) was “More and Increased”, the “mammary gland area (size)” value (mammary gland; listed as ROBO1-Ig-5) was “Increased” and the “number of primary (1°) branches” value (mammary gland; listed as ROBO1-Ig-5) was “Increased”. For the same molecule, the “dome formation in control cells (Scr)” value (HC11 cells [1]; HC11 Scramble KD (Scr) cells, ROBO1-ECD treatment) was “increased dome formation”, the “dome formation in response to a titration of ECD fragments” value (HC11 cells [1]; HC11 cells, increasing ECD concentration) was “higher rates of dome formation” and the “dome formation with ECD fragments generated in the presence of heparin” value (HC11 cells [1]; HC11 cells, vs same fragments generated in the absence of heparin (300 ng/ml)) was “fewer domes; also recorded: diminished”. The “dome formation in Notch4 knockdown cells (shNotch4)” value (HC11 cells [1]; HC11 shNotch4 cells, ROBO1-Ig5 treatment) was “same level of dome formation as untreated Notch4 knockdown cells; also recorded: unaffected”, the “dome formation in cells in which Robo1 expression was inhibited (shRobo1)” value (HC11 cells [1]; HC11 shRobo1 cells, ROBO1-Ig5 treatment) was “same level as that of control cells (Scr) treated with ROBO1-ECD fragments; also recorded: rescued” and the PLIN2 protein expression (HC11 cells [2]) was “approximately two-fold; also recorded: increased”. For the same molecule, the WAP protein expression (HC11 cells [2]) was “approximately two-fold; also recorded: increased”.
